This experiment addresses NaV1.5 CTD (Homo sapiens, UniProt Q14524). Put plainly: ITC. (In ITC the heat of successive injections is recorded.)

Chain of NaV1.5 CTD (Q14524 1773-1940): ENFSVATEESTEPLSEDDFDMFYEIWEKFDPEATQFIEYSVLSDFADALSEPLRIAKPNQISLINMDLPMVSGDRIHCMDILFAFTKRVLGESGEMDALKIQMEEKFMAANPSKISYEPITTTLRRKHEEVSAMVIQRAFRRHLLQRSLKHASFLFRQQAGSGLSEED

B1: FGF13 (protein)
chain: MAAAIASSLIRQKRQAREREKSNACKCVSSPSKGKTSCDKNKLNVFSRVKLFGSKKRRRRRPEPQLKGIVTKLYSRQGYHLQLQADGTIDGTKDEDSTYTLFNLIPVGLRVVAIQGVQTKLYLAMNSEGYLYTSELFTPECKFKESVFENYYVTYSSMIYRQQQSGRGWYLGLNKEGEIMKGNHVKKNKPAAHFLPKPLKVAMYKEPSLHDLTEFSRSGSGTPTKSRSVSGVLNGGKSMSHNEST
B1 showed a dissociation constant Kd of 123 nM.

As a reminder, the Kd is the free concentration of one partner at which half of the binding sites on the other are occupied at equilibrium, for simple one-to-one binding.
